The binders below were run against T1, human CD28 on CHO cells (parental cell line CHO-k1 ATCC #CCL-61, modified to stably overexpress human CD28) (human, UniProt P10747 19-220) (assay: flow cytometry (MFI PE), one-armed IgG from supernatant on CHO-k1 cells stably overexpressing human CD28; PE-conjugated goat anti-human secondary).
T1 construct: The whole entry (with signal peptide) is named; also called CHOk1-huCD28; CHOk1 huCD28

| binding result | Binder |
| --- | --- |
| binds | CD28(SA)_variant_13 (antibody, human IgG1, kappa, L234A L235A, tested from HEK supernatant, unpurified; also called P1AE3069) heavy: not shown light: not shown DKTHTCPPCPAPEAAGGPSVFLFPPKPKDTLMISRTPEVTCVVVDVSHEDPEVKFNWYVDGVEVHNAKTKPREEQYNSTYRVVSVLTVLHQDWLNGKEYKCKVSNKALGAPIEKTISKAKGQPREPQVCTLPPSRDELTKNQVSLSCAVKGFYPSDIAVEWESNGQPENNYKTTPPVLDSDGSFFLVSKLTVDKSRWQQGNVFSCSVMHEALHNRFTQKSLSLSP |

Target: T1, human CD28 on CHO cells (parental cell …)
Assay: as above
Remark: another data set of the same source

| binding result | Binder |
| --- | --- |
| binds | CD28(SA)_variant_27 (antibody, human IgG1, kappa, L234A L235A, tested from HEK supernatant, unpurified; also called P1AE3083) heavy: not shown light: not shown DKTHTCPPCPAPEAAGGPSVFLFPPKPKDTLMISRTPEVTCVVVDVSHEDPEVKFNWYVDGVEVHNAKTKPREEQYNSTYRVVSVLTVLHQDWLNGKEYKCKVSNKALGAPIEKTISKAKGQPREPQVCTLPPSRDELTKNQVSLSCAVKGFYPSDIAVEWESNGQPENNYKTTPPVLDSDGSFFLVSKLTVDKSRWQQGNVFSCSVMHEALHNRFTQKSLSLSP |
| binds | CD28(SA)_variant_25 (antibody, human IgG1, kappa, L234A L235A, tested from HEK supernatant, unpurified; also called P1AE3081) heavy: not shown light: not shown DKTHTCPPCPAPEAAGGPSVFLFPPKPKDTLMISRTPEVTCVVVDVSHEDPEVKFNWYVDGVEVHNAKTKPREEQYNSTYRVVSVLTVLHQDWLNGKEYKCKVSNKALGAPIEKTISKAKGQPREPQVCTLPPSRDELTKNQVSLSCAVKGFYPSDIAVEWESNGQPENNYKTTPPVLDSDGSFFLVSKLTVDKSRWQQGNVFSCSVMHEALHNRFTQKSLSLSP |
| binds | CD28(SA)_variant_30 (antibody, human IgG1, kappa, L234A L235A, tested from HEK supernatant, unpurified; also called P1AE3086) heavy: not shown light: DIQMTQSPSSLSASVGDRVTITCRASQNIYVWLNWYQQKPGKAPKLLIYKASNLYSGVPSRFSGSRSGTDFTLTISSLQPEDFATYYCQQGQTYPYTFGQGTKLEIKRTVAAPSVFIFPPSDRKLKSGTASVVCLLNNFYPREAKVQWKVDNALQSGNSQESVTEQDSKDSTYSLSSTLTLSKADYEKHKVYACEVTHQGLSSPVTKSFNRGEC DKTHTCPPCPAPEAAGGPSVFLFPPKPKDTLMISRTPEVTCVVVDVSHEDPEVKFNWYVDGVEVHNAKTKPREEQYNSTYRVVSVLTVLHQDWLNGKEYKCKVSNKALGAPIEKTISKAKGQPREPQVCTLPPSRDELTKNQVSLSCAVKGFYPSDIAVEWESNGQPENNYKTTPPVLDSDGSFFLVSKLTVDKSRWQQGNVFSCSVMHEALHNRFTQKSLSLSP |
| binds | CD28(SA)_variant_29 (antibody, human IgG1, kappa, L234A L235A, tested from HEK supernatant, unpurified; also called P1AE3085) heavy: not shown light: not shown DKTHTCPPCPAPEAAGGPSVFLFPPKPKDTLMISRTPEVTCVVVDVSHEDPEVKFNWYVDGVEVHNAKTKPREEQYNSTYRVVSVLTVLHQDWLNGKEYKCKVSNKALGAPIEKTISKAKGQPREPQVCTLPPSRDELTKNQVSLSCAVKGFYPSDIAVEWESNGQPENNYKTTPPVLDSDGSFFLVSKLTVDKSRWQQGNVFSCSVMHEALHNRFTQKSLSLSP |
| binds | CD28(SA)_variant_26 (antibody, human IgG1, kappa, L234A L235A, tested from HEK supernatant, unpurified; also called P1AE3082) heavy: not shown light: not shown DKTHTCPPCPAPEAAGGPSVFLFPPKPKDTLMISRTPEVTCVVVDVSHEDPEVKFNWYVDGVEVHNAKTKPREEQYNSTYRVVSVLTVLHQDWLNGKEYKCKVSNKALGAPIEKTISKAKGQPREPQVCTLPPSRDELTKNQVSLSCAVKGFYPSDIAVEWESNGQPENNYKTTPPVLDSDGSFFLVSKLTVDKSRWQQGNVFSCSVMHEALHNRFTQKSLSLSP |
| binds | CD28(SA)_variant_31 (antibody, human IgG1, kappa, L234A L235A, tested from HEK supernatant, unpurified; also called P1AE3087) heavy: not shown light: not shown DKTHTCPPCPAPEAAGGPSVFLFPPKPKDTLMISRTPEVTCVVVDVSHEDPEVKFNWYVDGVEVHNAKTKPREEQYNSTYRVVSVLTVLHQDWLNGKEYKCKVSNKALGAPIEKTISKAKGQPREPQVCTLPPSRDELTKNQVSLSCAVKGFYPSDIAVEWESNGQPENNYKTTPPVLDSDGSFFLVSKLTVDKSRWQQGNVFSCSVMHEALHNRFTQKSLSLSP |
